Key:
Assay in all cases: fluorescence quenching titration
[1] = target: SMC2 hinge long (mSMC2h of mSMC2h4h-l);SMC4 hinge long (mSMC4h of mSMC2h4h-l) (mouse;mouse) (UniProt Q8CG48+Q8CG47)
[2] = target: SMC2 hinge long (mSMC2h of mSMC2h4h-l);SMC4 hinge long (mSMC4h of mSMC2h4h-l) (mouse;mouse, UniProt Q8CG48;Q8CG47 492-680;581-766, |)
[3] = target: SMC2 hinge long K566E;SMC4 hinge long (mSMC4h of mSMC2h4h-l) (mouse;mouse, UniProt Q8CG48;Q8CG47 492-680;581-766, K566E|)
[4] = target: SMC2 hinge long K566E;SMC4 hinge long K657E (mouse;mouse, UniProt Q8CG48;Q8CG47 492-680;581-766, K566E|K657E)
[5] = target: SMC2 hinge long K613E;SMC4 hinge long K698E (mouse;mouse, UniProt Q8CG48;Q8CG47 492-680;581-766, K613E|K698E)
Sequence of SMC2 hinge long K613E;SMC4 hinge long K698E (Q8CG48 492-680 K613E, chain 1 of 2): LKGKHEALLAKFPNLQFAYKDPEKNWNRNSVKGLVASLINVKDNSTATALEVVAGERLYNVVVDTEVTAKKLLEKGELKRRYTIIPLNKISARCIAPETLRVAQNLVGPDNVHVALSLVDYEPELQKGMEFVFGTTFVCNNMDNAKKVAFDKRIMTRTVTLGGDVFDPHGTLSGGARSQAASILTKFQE
Sequence of SMC2 hinge long K613E;SMC4 hinge long K698E (Q8CG47 581-766 K698E, chain 2 of 2): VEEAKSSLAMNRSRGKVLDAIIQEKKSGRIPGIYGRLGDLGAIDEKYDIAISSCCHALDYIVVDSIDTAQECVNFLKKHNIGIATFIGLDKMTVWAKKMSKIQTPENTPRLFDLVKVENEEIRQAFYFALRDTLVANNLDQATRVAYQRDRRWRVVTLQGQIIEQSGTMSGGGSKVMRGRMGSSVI

Sequence of SMC2 hinge long (mSMC2h of mSMC2h4h-l);SMC4 hinge long (mSMC4h of mSMC2h4h-l) (mouse;mouse) (Q8CG48 492-680, chain 1 of 2): as the sequence (Q8CG48 492-680 K613E, chain 1 of 2) above, with E122K counted along it
Sequence of SMC2 hinge long (mSMC2h of mSMC2h4h-l);SMC4 hinge long (mSMC4h of mSMC2h4h-l) (mouse;mouse) (Q8CG47 581-766, chain 2 of 2): as the sequence (Q8CG47 581-766 K698E, chain 2 of 2) above, with E118K counted along it
Sequence of SMC2 hinge long (mSMC2h of mSMC2h4h-l);SMC4 hinge long (mSMC4h of mSMC2h4h-l) (Q8CG48 492-680, chain 1 of 2): as the sequence (Q8CG48 492-680 K613E, chain 1 of 2) above, with E122K counted along it
Sequence of SMC2 hinge long (mSMC2h of mSMC2h4h-l);SMC4 hinge long (mSMC4h of mSMC2h4h-l) (Q8CG47 581-766, chain 2 of 2): as the sequence (Q8CG47 581-766 K698E, chain 2 of 2) above, with E118K counted along it
Sequence of SMC2 hinge long K566E;SMC4 hinge long (mSMC4h of mSMC2h4h-l) (Q8CG48 492-680 K566E, chain 1 of 2): as the sequence (Q8CG48 492-680 K613E, chain 1 of 2) above, with K75E, E122K counted along it
Sequence of SMC2 hinge long K566E;SMC4 hinge long (mSMC4h of mSMC2h4h-l) (Q8CG47 581-766, chain 2 of 2): as the sequence (Q8CG47 581-766 K698E, chain 2 of 2) above, with E118K counted along it
Sequence of SMC2 hinge long K566E;SMC4 hinge long K657E (Q8CG48 492-680 K566E, chain 1 of 2): as the sequence (Q8CG48 492-680 K613E, chain 1 of 2) above, with K75E, E122K counted along it
Sequence of SMC2 hinge long K566E;SMC4 hinge long K657E (Q8CG47 581-766 K657E, chain 2 of 2): as the sequence (Q8CG47 581-766 K698E, chain 2 of 2) above, with K77E, E118K counted along it

Molecule | Kd [1] | Kd [2] | other results
CATCCTGTCCGCTGC / TTTTTTTTTTTTTTTGCAGCGGACAGGATG [30-mer ds-ssDNA-5'] | 1770 nM |  | 
CATCCTGTCCGCTGC / CCGGAGAGCATCTCG / GCAGCGGACAGGATGTTTTTTTTTTTTTTTCGAGATGCTCTCCGG [45-mer ds-ss-dsDNA] | 660 nM |  | 
CATCCTGTCCGCTGC / GCAGCGGACAGGATGTTTTTTTTTTTTTTT [30-mer ds-ssDNA-3'] | 1550 nM |  | 
TTTTTTTTTTTTTTTTTTTTTTTTTTTTTT (ssDNA) [30-mer ssDNA] |  | 450 ± 40 nM | Kd [3]: 1800 ± 80 nM; Kd [4]: 3260 ± 580 nM; Kd [5]: 2950 ± 300 nM
TTTTTTTTTTTTTTT (ssDNA) [15-mer ssDNA] |  | 3210 ± 140 nM | 
